This data set is described as follows: label from the status in PepcDB records.
Turning to “MSLSSLLIIFSSSFMALFPVINPLGNGFVVNGFFADLDPSQRKTAIQKLTINFIMIGVGTLLIGHLFLLIFGLAIPVIQLGGGILICKTAIELLGDSNSSDKEGTSQNVDSFKWKSIEQKIFYPITFPISIGPGSISVIFTLMASASVKGKLLHTGINYLVIALVIICMAGILYVFLSQGQRIIQKLGPVGNQIINKLVAFFTFCIGIQISVTGISQIFHLNIL”, the protein production entry is listed as “failed”.

Regarding “MGSSHHHHHHSSGLVPRGSHMLLREVTREERKNFYTNEWKVKDIPDFIVKTLELREFGFDHSGEGPSDRKNQYTDIRDLEDYIRATAPYAVYSSVALYEKPQEMEGWLGTELVFDIDAKDLPLRRCEHEPGTVCPICLNDAKEIVRDTVIILREELGFNDIHIIYSGRGYHIRVLDEWALKLDSKSRERILSFVSASEIEDVEEFRKLLLNKRGWFVLNHGYPRAFRLRFGYFILRIKLPHLINAGIRKSIAKSILKSKEEIYEEFVRKAILAAFPQGVGIESLAKLFALSTRFSKSYFDGRVTVDLKRILRLPSTLHSKVGLIAKYVGTNERDVMRFNPFKHAVPKFRKEEVKVEYKKFLESLGT”, the protein production entry was “not failed”.

In the case of “MSKICQITGKKAMVGNNVSHSKRRTKRVFDVNLFRKKFYWVEQDCWVVLRISAAGLRLINKIGLDAAIKRAAEKGFLNALEHHHHHH”, the protein production result is “not failed”. The same measure for “MGNLKLALIIKSPRDDVEFLLEKQKQPAKFGDEAYDSFVDSDLWDLPSTDLQALEDGVRSGFSISILDSCSEEVDLMNFDFESTLILLLENLGIDISDVGEWRFVRSVEEPEFGPDSCVRTCFISGKLLNTDQSLQDNCKWMSMESCFDSLIDVKLGSDRVGPLVLLGLGDGSRQSMKHKLSSSLAIQEYPPGVMIVPMHSKTLKPFRTTNLVVFAPENGLGDHQGADFVAHGDALIVDPGCLSKLHVELKKIVDALPRKLIVFVTHHHRDHIDGLSAIQESNPDAILVAHAKTRHRIGGWSGNYTPVSGGENIYVNGQKLTVIFAPGHTDGHMSLLHTSTQSLIVGDHCVGQGSAFLDIRAGGNMTDYFQSTYKFLELSPNVVIPMHGRVNLWPKHMLCGYLKNRRSREKSILKATVDGAQTLYDIVAKVYSSVDRKFWWAASSNVRLHIEKLAVENKLPEGFSIQKFKASCGLRFAIRCTVGYIISKIPFKINKPGFIMSVMAAGAGYFLLYTSKKKNQIES”: “failed”. The same measure for “MLDPATIVAVPAPGRACGPCTLCCKVYDVPAVESPAGRWCRHVRSGGGCGIHAERPDHCRAFHCLWMTETWIGPEWRPDRAKMVLSLDPVTRFLNVQVDPGQAGAWKRAPYHDQLRRWAAASLPLQRYVLVHVNKVTTVVLPDRDVALGTFGPGDRLVGRERMTPAGMTADVEKVSQLA”: “failed”; for “MRLRLLSLPFILSLCAPLLPLNTLAAERIVTIGGDVTEIAYALGAGDEIVARDSTSQQPQAAQKLPDVGYMRTLNAEGILAMKPTMLLVSELAQPSLVLTQIASSGVNVVTVPGQTTPESVAMKINAVATALHQTEKGQKLIEDYQQRLAAVNKTPLPVKVLFVMSHGGLTPMAAGQNTAADAMIRAAGGSNAMQGFSRYRPLSQEGVIASAPDLLLITTDGVKALGSSENIWKLPGMALTPAGKHKRLLVVDDMALLGFGLETPQVLAQLREKMEQMQ”: “failed”. The same measure for “MPFLLTLLAFLRVLRRLLKDEKFRALLYITAFTLAIGTFFYHSVEGWDWLDSLYFSVITLTTVGYGDFTPKTNIGKFFTIIYIFIGLGILVAFVTPIGEYIVDRRLDRIQEREQKKEIPENEFDFSGVIGKLRGKK”: “failed”; for “MEQPYVYAYPQGSGPSGAPTPQAGGVVVDPKYCAPYPIDMAIVRKMMSLTDGNFVITDVNGNLLFKVKEPVFGLHDKRVLLDGSGTPVVTLREKMVSMHDRWQVFRGGSTDQRDLLYTVKRSSMLQLKTKLDVFLGHNKDEKRCDFRVKGSWLERSCVVYAGESDAIVAQMHRKHTVQSVFLGKDNFSVTVYPNVDYAFIASLVVILDDVNREDRAA”: “not failed”; for “MLPMLLWLVANLFLAPAAEGFHGMNKTNTWAVILSSSRYFFNLRHTTNALAMYHLCRKHGMDDDHILVFLSDSYACDPRKPNPATIYGAPAQAEQPNLYGCNIRVDYASYDVGVRRFLGVLQGRYDENTPPSRRLDTDENSNIIIYAAGHSAEKFFKFQDSEFMSSTDIADTLMMMWEQRRYRKLVFLVDTCRALSLCLEIKAPNVVCLASSEAHLDSYSHHLDPPSGFTVITRWTFEFLEVLKDSKCRPENGEVTLLQKSFYDFNYGPERLSLPQPLSEPAHFDAVNRPNAIREWKMDEFFCEQDRDKIPVELRYDLF”: “failed”.

Regarding “MKTLLIIAHAPSENTKLMAEAVLKGAQHPDIEQVQTRWVRPLEATPEDVLSCDGIIMGTTENLGYMSGALKDFFDRCYYPCLEVKQGLPCALYVRAGNDGTGTCRAVETICTGLRWNWIQPPLVCRGDWQTLFIEQCEELGMTMAAGLDVGIY”, the protein production entry is listed as “failed”. As for “MHRFLSGPLSVEQLTVNIAGLSASLQGKKLVHLSDFHYDGLRLSEEMLAEAIAVSNQVQPDLVLLTGDYVTTTPQPIHQLAKRLQKLQSHAGIYAILGNHDLYQKNSKTEITQALTKAGIQVLWNEIAYPLGEELPIVGIVDYYYREFNPQLLFNQLEPTTPRIVLCHNPDTAAMLQGWRVDLQLSGHTHGGQIVIPGLGAVLPYHKKIVRRVPIKIRRLFPLFFKDYFIVRHAEWLQGLHRIGKNQLYVNRGLGTYLPGRLFCPPELTVITLEAE”, the protein production entry is on record as “failed”. The result for “MNIGSMDIQKIGMITSYRNLAKRADWLWQQTPQQFGIWQNIQIQALSGKPDFLLMYQFDFPKDNQQTSLIDKLRQKLQNPQVNVESLLRDVPKEKIIYLLREPPLDEIVEKNKRYYQEAKKYCGYISGPDDFAPKPDYMPAIWYHNNSFRELNEMPVPEKVFPCSWITSGISRTVNHRRRLKFVELIQASEVKCDVYGRDLPIWAKSLGELGNKWYGMAPYYYNLSIENYADNDWYVSEKLWDALLAWCLPIYYGGPAADKLLPPGSFLRLPSLDEKGIAYIQEVTATPDAWYAAKDAIAEARQLILHKLNLLNWLSEFVTQFS” reads “failed”. The same measure for “MPMKSWIKTLLITLLAAALCLLFARVVLPPLLVQLIPPSWEGGPWFWVNLLLAGFLAGLVVAPLLRTRRYYPVPLLLLLSVLVVVGNWAQNRCNDAQLQAIEQLERRSASHSNLGISNEEPAPSAPVDVSATPGVWAHEQGDGYGYSCNRPGETQGFLMPQLMSFGINVLGLLLALLIGPGRRRAR”: “failed”; for “MSLQTRKQREDAKREAWKKERQEKKALEAQQDSVSYVQAINALKNGSFVLEADNVVFRNGIMRFVSSNTNYVEVNDGQGIIQTAFTNFVYNWSPNGLGGVTVQGNVNGISMRQDKDGNVYYNYGINGIAVSATVSIVLTGGTNQASVTINPNFSGNTLTMNGYLVPYNEGHHHHHH”: “not failed”. The same measure for “MNYAFVVQARLGSTRLPGKILKPFYGNQSILDLMVHKLSAISNIPVIIATTNSVINEPIEKKALALGVKCFRGEENDVLKRFIDVAEYFDIQGIFRICSDNPFLDVHAARQLVEIAMKSCNDYISFDIDGTPSIKTHFGFWGEFVTLDALKRVIGFTDDLLYREHVTNYIYSHPELFNIQWISGSPVVSKHHNIRLTIDTLEDFSVAQRIYRDLQEKRVEISIEVIVDYVRRHAEYIQLMKQQIKKNSKLEHHHHHH”: “not failed”. On to “MGGKLVSFIRSRLEIVQNIAAEDEGCKKAYYCMGSPLFALNAERMENNLVTLSGGISINKQLQKKGKPGVNVSPAFINEHNPEAIFISSFLSRPLNEFYELCQKYGIHADAVKKRQVYAVPAAWDFGNPRWILGLLYITDKLHPGKLEHHHHHH”, for which the protein production result is given as “failed”. The same measure for “MMKNKKVEANLSMVVSKTFSGLNMNALKYLLPVWVSPLSGVTLRCVFAAIAFWIIGMFVKPEISTRKEKIFLFLLGALGIYGFMFLYLMGLSKTTPVSSSIFTSLQPIWVFVIAVVFFKEKISAMKIAGISLGLGGAILCILAQKSDDLASDALTGNMLCLLSSIAYAVYLVASNRILKSVGMFTVLKYTFAGAAFSSIVVSAVTGFHAPVFSGPLHWFPLSVLLFVLIFPTVVSYLLVPIGLKYLKTTVVAIYGYLILIVATIVSLLVGQDRFSWSQTIAIGMICVSVYLVEVAETKEKPVSNSDKPSSLPPHGS”: “failed”. The result for “MHVFYSEERRGNLLILREGEVKHFRVRRIEKDEEFGVIHEGKIYVCKVRREDKREISCEIVEELETKLPPKDITLYQSVTVDLKTMDTIVRQATELGVLTFVPIISERSFQKEEAILKKTEKWKRIVIEAMKQSRRPIPMEIKKPVRLSDLIPESEENIILDNFYEGVKPKDVNLEAKTYSVVVGPEGGFSKRESQILREKGFKSVLLEPYTLRTETAVVSIVSILMNF” reads “not failed”; that for “MGRNFLAILYFCFLFLGFLSCSNVKSMSLMAIGNYEYVRGNYQNAISNYYNLVEDEKYSAWGYYNLGVVYYSLGEYESSLRIFSYAKKTNDIFLNFNVNYNEGVIYYNQGLYHKAEVAFKEALKINPGSYNAKYNLELAIIKKRAVRDSLNSLSVEKGKNFVESNENFLRYIENLERVVWLRKIDENLAVPKEDW”, “failed”; that for “MKTNSEELTVFVQVVESGSFSRAAEQLEMANSAVSRIVKRLEEKLGVNLLNRTTRQLNLTEEGAQYFRRAQRILQEMAAAETEMLAVHEVPQGVLRVDSAMPMVLHLLAPLAAKFNERYPHIRLSLVSSEGYINLIERKVDIALRAGELDDSGLRARHLFDSHFRVVASPEYLAKHGTPQSAEDLANHQCLGFTEPGSLNTWAVLDAQGNPYKISPHFTASSGEILRSLCLSSCGIACLSDFLVDNDITEGKLIPLFAEQTSNKTHPFNAVYYSDKAVNLRLRVFLDFLVKELGKNMNRTNTK”, “not failed”. The result for “MMIAAAIFTTCVDGNKFFYHREIKVLRHLKRFNKPALKSIKSEDGDVIDCVPITNQPAFDHHLLKNHTIQMRPSFYPVSDSTYTKREAKAVTQVWHKAGECPKNTVPIRRTKKEDLLRPKSIRSFGRKSHQSIPRTTTFDPTLGHQYALMGVRNGKFYGTEVAINLWKPYVQIPKEFSLAQTWVVSGNGSSLNTIEAGWQVYPELYDDNNPRFFVYWTRDGYRKTGCYNLLCSGFVQTSNRYTVGGSITTMSRYRGTQYDLSVLIWKDQKTGNWWLRVNEKDVIGYWPGSLFNSLGREATRVEWGGEIINSKTGGRHTTTDMGSGHFADEGFKKASYFRNLKIVDGTNTLREPQGLYFFADKHNCYNVKTGNGGTSWGAHFFYGGPGRNVKCP” reads “not failed”. For the sequence “MRYWKNSRIKMFEQEDEWISKTQMKKQMNDLQDLGMALTKLSNDTLKKIGLDADLYEAVTAYKKITSNGALKRQAQFIGRLMRDTDPAPIEAFLAKLRGDDAAHNAFLQRVEQARVRLLADDGALTQFMSDFPHADAGKLRTLIRNTKKEQEQNKPPKNFRALFQELKTVMENGDAEI”, the protein production entry is reported as “failed”. The result for “MFRSLNSYLIDFTGLVVISVLICLVSAGGSLASGLPFQIPASVLQLNTIFISILIEALPFVLIGVLIAGFIQIFVTEEHIRSLFPKNRFSGVIVSCLLGACFPACECGIVPIVRRLVSKGVPIYAGVGFLLTGPLINPIVVLSTYMAFGNDLRMAVLRVAVGFAAAVIIAFAISMMFRSSQLKTESRQTAAHCAHSGRRSPFSEKLFDMLKHAVDEFFDMGRFLIIGALVAALVQTYLPLKSLFVFGGGMLDSALVMMGLAYFLSLCSEADAFIGASFTNLFPSSSILAFLVYGPMLDLKNTVMMLHAFKPKFVICLSVLITVVVFVCIKVVSLL” reads “failed”. Consider “AQTPAQPQGKGIFQSVSEAIDAAHQAFLRYQQCPLKTRSAIISAMRQELTPLLATLAEESANETGMGNKEDKFLKNKAALDNTPGVEDLTTTALTGDGGMVLFEYSPFGVIGSVAPSTNPTETIINNSISMLAAGNSIYFSPHPGAKKVSLKLISLIEEIAFRCCGIRNLVVTVAEPTFEATQQMMAHPRIAVLAITGGPGIVAMGMKSGKKVIGAGNPPCIVDETADLVKAAEDIINGASFDYNLPCIAE”, for which the protein production entry is “failed”.

The values above are taken from a protein production outcome set (Wang et al. 2014).
